Measurements reported in paper PMC9482650, “Quantitative fragmentomics allow affinity mapping of interactomes” (Nature Communications, 2022).

T1: ARHGAP21, Q5T5U3
T1 sequence (Q5T5U3 45-169, limits assumed, looked up): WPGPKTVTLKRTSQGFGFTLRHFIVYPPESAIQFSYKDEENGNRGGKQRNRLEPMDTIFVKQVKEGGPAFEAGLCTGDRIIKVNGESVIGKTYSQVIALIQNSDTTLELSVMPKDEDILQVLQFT

T2: LNX2_3, Q8N448
T2 sequence (Q8N448 463-564, limits assumed, looked up): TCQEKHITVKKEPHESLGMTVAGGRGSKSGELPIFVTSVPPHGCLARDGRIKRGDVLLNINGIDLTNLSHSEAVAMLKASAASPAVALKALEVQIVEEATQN

T3: HTRA3, P83110
T3 sequence (P83110 354-453, limits assumed, looked up): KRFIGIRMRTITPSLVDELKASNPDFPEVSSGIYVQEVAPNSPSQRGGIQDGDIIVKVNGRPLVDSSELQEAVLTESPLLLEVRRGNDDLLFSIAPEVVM

T4: TIAM2, Q8IVF5
T4 sequence (Q8IVF5 885-986, limits assumed, looked up): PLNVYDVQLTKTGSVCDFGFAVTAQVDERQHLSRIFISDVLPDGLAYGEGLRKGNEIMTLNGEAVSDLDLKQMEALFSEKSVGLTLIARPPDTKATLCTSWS

T5: GRIP1_4, Q9Y3R0
T5 sequence (Q9Y3R0 467-571, limits assumed, looked up): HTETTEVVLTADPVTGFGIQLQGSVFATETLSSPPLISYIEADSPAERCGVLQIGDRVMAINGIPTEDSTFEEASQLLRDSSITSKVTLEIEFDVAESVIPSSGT

T6: DLG3_2, Q92796
T6 sequence (Q92796 221-321, limits assumed, looked up): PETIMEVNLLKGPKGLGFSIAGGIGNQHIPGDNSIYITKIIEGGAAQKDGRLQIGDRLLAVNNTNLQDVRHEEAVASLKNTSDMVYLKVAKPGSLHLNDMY

T7: GRIP1_5, Q9Y3R0
T7 sequence (Q9Y3R0 568-668, limits assumed, looked up): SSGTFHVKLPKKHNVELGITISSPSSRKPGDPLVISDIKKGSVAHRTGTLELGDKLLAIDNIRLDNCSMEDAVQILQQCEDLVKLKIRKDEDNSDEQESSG

T8: LNX2_2, Q8N448
T8 sequence (Q8N448 334-432, limits assumed, looked up): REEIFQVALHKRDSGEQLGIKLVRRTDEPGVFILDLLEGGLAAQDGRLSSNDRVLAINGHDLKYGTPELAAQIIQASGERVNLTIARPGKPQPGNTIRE

T9: RADIL, Q96JH8
T9 sequence (Q96JH8 971-1071, limits assumed, looked up): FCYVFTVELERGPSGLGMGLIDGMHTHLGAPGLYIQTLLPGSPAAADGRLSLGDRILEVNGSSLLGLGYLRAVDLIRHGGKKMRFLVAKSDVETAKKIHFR

T10: NHERF3_1, Q5T2W1
T10 sequence (Q5T2W1 4-100, limits assumed, looked up): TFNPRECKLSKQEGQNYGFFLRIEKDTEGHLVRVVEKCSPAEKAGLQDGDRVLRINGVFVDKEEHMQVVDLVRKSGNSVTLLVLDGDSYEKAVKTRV

T11: MPP2, Q14168
T11 sequence (Q14168 180-250, limits assumed, looked up): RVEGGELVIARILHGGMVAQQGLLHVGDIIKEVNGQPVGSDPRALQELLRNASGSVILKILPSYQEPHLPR

T12: LIN7B, Q9HAP6
T12 sequence (Q9HAP6 88-185, limits assumed, looked up): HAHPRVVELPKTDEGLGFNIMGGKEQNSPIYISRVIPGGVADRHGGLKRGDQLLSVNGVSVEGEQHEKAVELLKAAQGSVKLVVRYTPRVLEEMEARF

B1: MMP24, Q9Y5R2 (peptide)
chain: YYKRPVQEWV
B2: MYOZ3, Q8TDC0 (peptide)
chain: VRNLPESEEL
B3: MYOZ2, Q9NPC6 (peptide)
chain: DTTVPESEDL
B4: SLC22A12, Q96S37 (peptide)
chain: GNSVLKSTQF
B5: NLGN4X, Q8N0W4 (peptide)
chain: LPHGHSTTRV
B6: KIF17, Q9P2E2 (peptide)
chain: SKSNFGSEPL

Experiments:
Test in all cases: holdup assay
Parameters in all cases: key: below the threshold = too weak to quantify, mostly under pKd 3.1 to 4
Conditions in all cases: plain residues with an end cap or a label only (N-terminal biotin on a linker: ado-ado)
[1] = target: T1, ARHGAP21, Q5T5U3
[2] = target: MAST2, Q6P0Q8
[3] = target: T2, LNX2_3, Q8N448
[4] = target: DLG1_1, Q12959
[5] = target: T3, HTRA3, P83110
[6] = target: SNX27, Q96L92
[7] = target: T4, TIAM2, Q8IVF5
[8] = target: TJP2_1, Q9UDY2
[9] = target: GRIP2_5, Q9C0E4
[10] = target: T5, GRIP1_4, Q9Y3R0
[11] = target: T6, DLG3_2, Q92796
[12] = target: NOS1, P29475
[13] = target: T7, GRIP1_5, Q9Y3R0
[14] = target: PARD3_3, Q8TEW0
[15] = target: LAP2, Q96RT1
[16] = target: T8, LNX2_2, Q8N448
[17] = target: IL16_4, Q14005
[18] = target: T9, RADIL, Q96JH8
[19] = target: T10, NHERF3_1, Q5T2W1
[20] = target: Inadl_2, Q8NI35
[21] = target: T11, MPP2, Q14168
[22] = target: IL16_3, Q14005
[23] = target: MAGI2_2, Q86UL8
[24] = target: FRMPD4, Q14CM0
[25] = target: T12, LIN7B, Q9HAP6

Chain of TJP2_1, Q9UDY2 (Q9UDY2 24-128): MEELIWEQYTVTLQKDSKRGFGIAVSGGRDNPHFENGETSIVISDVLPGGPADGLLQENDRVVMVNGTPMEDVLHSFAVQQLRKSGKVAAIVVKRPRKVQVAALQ
Chain of MAGI2_2, Q86UL8 (Q86UL8 410-522): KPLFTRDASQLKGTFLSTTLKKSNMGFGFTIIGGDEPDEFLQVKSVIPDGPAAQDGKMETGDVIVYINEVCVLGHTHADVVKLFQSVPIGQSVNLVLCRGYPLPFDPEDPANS
Chain of FRMPD4, Q14CM0 (Q14CM0 67-160): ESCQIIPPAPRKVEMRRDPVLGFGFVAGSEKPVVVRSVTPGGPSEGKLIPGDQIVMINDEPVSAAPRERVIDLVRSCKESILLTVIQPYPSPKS
Chain of MAST2, Q6P0Q8 (Q6P0Q8 1099-1202): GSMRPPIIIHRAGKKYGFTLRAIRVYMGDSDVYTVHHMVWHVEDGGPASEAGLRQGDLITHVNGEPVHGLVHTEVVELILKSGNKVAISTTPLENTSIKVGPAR
Chain of IL16_4, Q14005 (Q14005 1229-1329): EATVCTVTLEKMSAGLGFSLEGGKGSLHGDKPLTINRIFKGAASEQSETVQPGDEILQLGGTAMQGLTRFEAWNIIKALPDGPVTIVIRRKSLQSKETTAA
Chain of Inadl_2, Q8NI35 (Q8NI35 238-335): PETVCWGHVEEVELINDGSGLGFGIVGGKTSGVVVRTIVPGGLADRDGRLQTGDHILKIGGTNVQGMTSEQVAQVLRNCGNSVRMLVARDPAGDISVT
Chain of IL16_3, Q14005 (Q14005 1107-1207): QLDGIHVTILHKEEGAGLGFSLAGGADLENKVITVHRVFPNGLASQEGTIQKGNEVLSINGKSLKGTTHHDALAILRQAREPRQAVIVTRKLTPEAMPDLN
Chain of NOS1, P29475 (P29475 9-101): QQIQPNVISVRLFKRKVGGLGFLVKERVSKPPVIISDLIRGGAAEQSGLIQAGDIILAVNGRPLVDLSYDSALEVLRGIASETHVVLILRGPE
Chain of GRIP2_5, Q9C0E4 (Q9C0E4 544-642): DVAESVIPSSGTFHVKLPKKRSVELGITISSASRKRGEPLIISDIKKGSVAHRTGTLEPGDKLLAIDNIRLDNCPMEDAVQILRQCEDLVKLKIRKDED
Chain of PARD3_3, Q8TEW0 (Q8TEW0 582-685): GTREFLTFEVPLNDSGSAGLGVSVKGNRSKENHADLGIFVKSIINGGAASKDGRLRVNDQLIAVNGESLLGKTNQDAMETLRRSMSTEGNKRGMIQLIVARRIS
Chain of LAP2, Q96RT1 (Q96RT1 other isoform, or with tags, fused parts or gaps): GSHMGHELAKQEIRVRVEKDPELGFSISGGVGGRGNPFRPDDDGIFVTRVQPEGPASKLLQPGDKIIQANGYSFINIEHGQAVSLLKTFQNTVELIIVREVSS

| Binder | pKd [1] | pKd [2] | pKd [3] | pKd [4] | pKd [5] | pKd [6] | pKd [7] | pKd [8] | pKd [9] | pKd [10] | pKd [11] | pKd [12] | pKd [13] | pKd [14] | pKd [15] | pKd [16] | pKd [17] | pKd [18] | pKd [19] | pKd [20] | also measured |
| --- | --- | --- | --- | --- | --- | --- | --- | --- | --- | --- | --- | --- | --- | --- | --- | --- | --- | --- | --- | --- | --- |
| B1 | below the threshold | below the threshold | below the threshold | below the threshold | 5.7 | 4.2 | 4.08 | 6.12 | below the threshold | below the threshold | 4.23 | 4.39 | below the threshold | 3.73 | 4.51 | 4.86 | 3.57 | 5.63 | 4.24 | 3.94 | pKd [21]: below the threshold; pKd [22]: below the threshold; pKd [23]: below the threshold; pKd [24]: below the threshold; pKd [25]: below the threshold |
| B2 | 3.59 | 4.74 | below the threshold | below the threshold | below the threshold | 3.71 | below the threshold | below the threshold | below the threshold | below the threshold | below the threshold | below the threshold | below the threshold | below the threshold | below the threshold | below the threshold | below the threshold | below the threshold | 3.88 | below the threshold | pKd [21]: below the threshold; pKd [22]: below the threshold; pKd [23]: below the threshold; pKd [24]: 3.89; pKd [25]: below the threshold |
| B3 | below the threshold | 4.7 | below the threshold | below the threshold | below the threshold | 3.65 | below the threshold | below the threshold | below the threshold | below the threshold | below the threshold | below the threshold | below the threshold | below the threshold | below the threshold | below the threshold | below the threshold | below the threshold | below the threshold | below the threshold | pKd [21]: below the threshold; pKd [22]: below the threshold; pKd [23]: below the threshold; pKd [24]: 3.66; pKd [25]: below the threshold |
| B4 | below the threshold | 4.77 | below the threshold | below the threshold | below the threshold | 4.95 | 4.13 | below the threshold | below the threshold | below the threshold | 4.21 | 3.72 | below the threshold | below the threshold | below the threshold | below the threshold | 3.58 | below the threshold | 6.17 | below the threshold | pKd [21]: below the threshold; pKd [22]: below the threshold; pKd [23]: below the threshold; pKd [24]: below the threshold; pKd [25]: 3.71 |
| B5 | 3.73 | 5.12 | below the threshold | 3.82 | below the threshold | 5.18 | below the threshold | 4.04 | below the threshold | below the threshold | 3.85 | 3.76 | below the threshold | below the threshold | 3.67 | 3.8 | 3.74 | 3.7 | 3.88 | below the threshold | pKd [21]: below the threshold; pKd [22]: below the threshold; pKd [23]: 4.95; pKd [24]: below the threshold; pKd [25]: 3.66 |
| B6 | 3.56 | 3.93 | below the threshold | below the threshold | below the threshold | below the threshold | below the threshold | below the threshold | below the threshold | below the threshold | below the threshold | below the threshold | below the threshold | below the threshold | below the threshold | below the threshold | below the threshold | below the threshold | 3.94 | below the threshold | pKd [21]: below the threshold; pKd [22]: below the threshold; pKd [23]: below the threshold; pKd [24]: below the threshold; pKd [25]: below the threshold |
